# B1: rhPDE3A-A510 (recombinant form lacking the first 510 aa of the PDE3A open reading frame) (enzyme)
# chain: SRPGALAKISPLSSPCSSPLQGTPASSLVSKISAVQFPESADTTAKQSLGSHRALTYTQSAPDLSPQILTPPVICSSCGRPYSQGNPADEPLERSGVATRTPSRTDDTAQVTSDYETNNNSDSSDIVQNEDETECLREPLRKASACSTYAPETMMFLDKPILAPEPLVMDNLDSIMEQLNTWNFPIFDLVENIGRKCGRILSQVSYRLFEDMGLFEAFKIPIREFMNYFHALEIGYRDIPYHNRIHATDVLHAVWYLTTQPIPGLSTVINDHGSTSDSDSDSGFTHGHMGYVFSKTYNVTDDKYGCLSGNIPALELMALYVAAAMHDYDHPGRTNAFLVATSAPQAVLYNDRSVLENHHAAAAWNLFMSRPEYNFLINLDHVEFKHFRFLVIEAILATDLKKHFDFVAKFNGKVNDDVGIDWTNENDRLLVCQMCIKLADINGPAKCKELHLQWTDGIVNEFYEQGDEEASLGLPISPFMDRSAPQLANLQESFISHIVGPLCNSYDSAGLMPGKWVEDSDESGDTDDPEEEEEEAPAPNEEETCENNESPKKKTFKRRKIYCQITQHLLQNHKMWKKVIEEEQRLAGIENQSLDQTPQSHSSEQIQAIKEEEEEKGKPRGEEIPTQKPDQ
# notes: The range 511-1141 follows from the statement that the first 510 aa of the open reading frame were deleted; Incubated with or without rPKAc
# Key:
# [1] = target: His-tagged recombinant rat AKAP18δ (rAKAP18δ) (rat) (UniProt Q6JP77); assay: co-IP with anti-his beads, anti-Flag immunoblot, band ratios; reference is the same reaction without rPKAc
# [2] = target: T1, Purified recombinant SERCA2 (rSERCA2, Abnova) (UniProt P16615 1-1042, limits assumed); assay: co-IP of the Flag-tagged construct with purified rSERCA2 (150 ng), anti-Flag IP, anti-SERCA2 immunoblot
# T1 construct: Bought protein; The legend gives 1042 amino acids, while the discussion calls it SERCA2a
# Excerpt: FIG. 11 a-d. rPKAc phosphorylates rhPDE3A and increases its interactions rSERCA2. A. Schemes representing PDE3A1 [NHR1: trans-membrane domain (obligatory membrane insertion domain); NHR2: membrane association domain; CCR: conserved C-terminal catalytic region; P1-4: predicted PKA phosphorylation sites; rhPDE3A and truncated mutants (PDE3A2, PDE3A-A510, PDE3A-RD), and rSERCA2 (1042 amino acids, 3-77 cation transporter N-terminal; 93-341, E1-E2 ATPase; 345-724, haloacid dehydrogenase like hydrolase; 819-991, cation transporter ATPase C-terminus). B. Putative PKA phosphorylation sites of PDE3A designated with asterisks. […] Proteins were immunoprecipitated with anti-Flag antibodies and immunoblotted with anti-SERCA2 (upper panel), or anti-Flag (middle panel). Lower panel: input control (SERCA2). Shown are representative blots from three independent experiments. (RD: regulatory domain; AA: amino acid).
# T1 sequence (P16615 whole entry): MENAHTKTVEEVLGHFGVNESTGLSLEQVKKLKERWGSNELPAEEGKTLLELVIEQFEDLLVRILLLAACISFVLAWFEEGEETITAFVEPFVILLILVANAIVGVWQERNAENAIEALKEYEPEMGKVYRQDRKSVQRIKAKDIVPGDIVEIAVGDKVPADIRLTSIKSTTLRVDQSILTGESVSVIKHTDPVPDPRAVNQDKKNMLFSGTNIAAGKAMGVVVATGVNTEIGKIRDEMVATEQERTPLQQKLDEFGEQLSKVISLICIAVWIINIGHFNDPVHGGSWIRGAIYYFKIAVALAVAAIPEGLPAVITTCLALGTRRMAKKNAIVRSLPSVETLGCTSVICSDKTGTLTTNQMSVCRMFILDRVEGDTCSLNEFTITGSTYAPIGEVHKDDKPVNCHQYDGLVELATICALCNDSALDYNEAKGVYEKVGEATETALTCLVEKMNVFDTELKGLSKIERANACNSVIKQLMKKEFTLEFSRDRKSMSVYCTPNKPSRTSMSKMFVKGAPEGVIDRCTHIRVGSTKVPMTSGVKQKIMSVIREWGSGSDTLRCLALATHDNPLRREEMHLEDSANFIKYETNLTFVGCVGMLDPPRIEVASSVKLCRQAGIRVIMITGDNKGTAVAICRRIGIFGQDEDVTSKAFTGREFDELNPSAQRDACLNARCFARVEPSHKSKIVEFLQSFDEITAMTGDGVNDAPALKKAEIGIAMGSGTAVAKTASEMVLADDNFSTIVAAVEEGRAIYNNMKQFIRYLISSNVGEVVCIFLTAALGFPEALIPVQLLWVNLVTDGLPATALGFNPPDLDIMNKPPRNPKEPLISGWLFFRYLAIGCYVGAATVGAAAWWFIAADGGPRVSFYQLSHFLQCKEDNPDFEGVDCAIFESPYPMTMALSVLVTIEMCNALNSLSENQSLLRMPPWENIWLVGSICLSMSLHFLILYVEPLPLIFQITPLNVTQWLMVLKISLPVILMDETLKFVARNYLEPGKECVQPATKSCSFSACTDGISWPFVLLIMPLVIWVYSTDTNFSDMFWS
# Sequence of His-tagged recombinant rat AKAP18δ (rAKAP18δ) (rat) (Q6JP77 whole entry, stated change not applied): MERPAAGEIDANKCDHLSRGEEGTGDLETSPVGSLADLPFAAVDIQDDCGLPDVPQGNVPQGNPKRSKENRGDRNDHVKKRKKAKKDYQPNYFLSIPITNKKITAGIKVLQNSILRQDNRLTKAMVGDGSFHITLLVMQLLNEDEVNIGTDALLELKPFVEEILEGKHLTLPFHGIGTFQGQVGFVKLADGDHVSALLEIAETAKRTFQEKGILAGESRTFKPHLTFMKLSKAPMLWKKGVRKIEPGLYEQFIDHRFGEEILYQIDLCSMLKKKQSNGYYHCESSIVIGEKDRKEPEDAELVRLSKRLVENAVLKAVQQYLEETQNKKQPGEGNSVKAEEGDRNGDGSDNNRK
Molecule,fold increase in binding (with rPKAc against control without rPKAc) [1],binding result [2]
"Flag-tagged recombinant human PDE3A1 (rhPDE3A1), phosphorylated in vitro by rPKAc (from UniProt Q14432 146-1141) (enzyme)",9 fold,
B1,,no binding

# — patent US20160083701A1 (UNITED STATES OF AMERICA AS REPRESENTED BY THE DEPARTMENT …, published 2016)
